Assay results published in article PMC3281842 (2012).
Square brackets hold non-standard residues; d marks the D form. Ends that are not written are not given here. Arg(Me2a) = CN(C)C(=N)NCCC[C@H](N)C(=O)O

Target: TDRD3 (aa 520–633) (human, UniProt Q9H7E2 520-633)
Assay: ITC

Kd: > 500 µM
Binder: TG[Arg(Me2a)]ARARA [PIWIL1_R4me2a peptide (TGRme2aARARA)]
